Laboratory results published in article PMC7688639.

Assays:
[1] = target: actin filaments (F-actin) polymerised from rabbit muscle actin (rabbit) (UniProt P68135); assay: single-molecule TIRF binding kinetics (dwell times); as a1, in the presence of 200 nM HMM
[2] = target: actin filaments (F-actin) polymerised from rabbit muscle actin (rabbit) (UniProt P68135); assay: single-molecule TIRF binding kinetics (dwell times); as a1, in the presence of 200 nM drebrin 1–300
[3] = target: actin filaments (F-actin) polymerised from rabbit muscle actin (rabbit) (UniProt P68135); assay: single-molecule TIRF binding kinetics (dwell times); as a1, actin filaments co-polymerized with 5 µM biotin-phalloidin
[4] = target: actin filaments (F-actin) polymerised from rabbit muscle actin (rabbit) (UniProt P68135); assay: single-molecule TIRF binding kinetics (dwell times); as a1, with 1 µM phalloidin added after the filaments had been tethered
[5] = target: actin filaments (F-actin) polymerised from rabbit muscle actin (rabbit) (UniProt P68135); assay: single-molecule TIRF binding kinetics (dwell times); as a1, with 1 µM jasplakinolide added after the filaments had been tethered
[6] = target: actin filaments (F-actin) polymerised from rabbit muscle actin (rabbit) (UniProt P68135); assay: single-molecule TIRF binding kinetics (dwell times); dual colour with 10 nM Atto-488-cofilin and Alexa-555-utrn (0.05–0.1 nM), 450 ms per frame; events far (>30 nm) from a cofilin binding event
[7] = target: actin filaments (F-actin) polymerised from rabbit muscle actin (rabbit) (UniProt P68135); assay: single-molecule TIRF binding kinetics (dwell times); dual colour with 10 nM Atto-488-cofilin and Alexa-555-utrn (0.05–0.1 nM), 450 ms per frame; events near (<30 nm) a cofilin binding event; only τ1 fitted
[8] = target: actin filaments (F-actin) polymerised from rabbit muscle actin (rabbit) (UniProt P68135); assay: single-molecule TIRF binding kinetics (on-rate); tethered actin filaments; frequency of binding events for a range of concentrations of actin-binding domain, linear regression of frequency against concentration
[9] = target: actin filaments (F-actin) polymerised from rabbit muscle actin (rabbit) (UniProt P68135); assay: single-molecule TIRF binding kinetics (dwell times); actin filaments tethered to a PEG/biotin-PEG coverslip by streptavidin and biotin-phalloidin; labelled binding domain in solution at ~0.05–0.1 nM; 25 mM imidazole, 25 mM KCl, 4 mM MgCl2, 1 mM EGTA, 1 mM DTT, pH 7.4, 10 µg/mL beta casein; double exponential fit of the CDF, bleaching corrected

dwell time τ1 (first timescale) [1]: 0.4 s | dwell time τ1 (first timescale) [2]: 0.34 s | dwell time τ1 (first timescale) [3]: 0.41 s | dwell time τ1 (first timescale) [4]: 0.49 s | dwell time τ1 (first timescale) [5]: 0.47 s | dwell time τ1 (first timescale) [6]: 0.44 s | dwell time τ1 (first timescale) [7]: 0.57 s | kon [8]: 2.1e+06 M⁻¹ s⁻¹ | average dwell time (τav) [9]: 0.8 s | dwell time τ1 (first timescale) [9]: 0.42 s | ratio of the two dwell-time scales (τ2/τ1) [9]: 9.6
Substance: utrophin actin-binding domain Δ-nterm Q33A T36A (domain or fragment)
